Laboratory results as given in US8703503B2, “Methods and compositions for inhibition of BCL6 repression” (Albert Einstein School of Medicine of Yeshiva University, priority 2003, dated 2014).
Entries after “also recorded” stand apart in the source; their conditions may differ. Residues, ends and D or L forms follow the SMILES beside them. No end group written: not given here.

How the values were obtained:
BCL6 BTB domain [1] = target: T1, BCL6 BTB domain (Homo sapiens, UniProt P41182, C67R/C84N/C8Q); test: biochemical
Description: Protein Expression and Purification. […] BCL6 BTB domain protein was produced by thrombin digestion of the thioredoxin fusion proteins, and repurified by size-exclusion chromatography in 500 mM NaC1, 20 mM Tris-HCl, 10% glycerol, 1.0 mM TCEP, pH 8.5. Corepressor fusion proteins were biotinylated with BirA and digested with TEV protease to yield peptides for SPR analysis with a biotinylated lysine eight amino acids N-terminal to the first corepressor residue, or digested with thrombin to produce peptides with no additional N-terminal residues for co-crystallization or ITC.
ITC: The binding of SMRT^1414-1430 to BTB domain protein was analyzed on a Microcal VP-ITC instrument at 25° C. All components were in 150 mM NaCl, 20 mM Hepes pH 7.7, 1 mM TCEP. The experiment consisted of thirty 6.93 μL injections of a solution containing 480 μM SMRT^1414-1430 into a sample cell containing 1.8 mL of either BCL6 BTB (23.0 μM) or PLZF BTB (38.5 μM). To correct for dilution and mixing effects, a series of control injections was carried out, in which the heat of dilution was measured in blank titrations by injecting the peptide into the buffer.

[2] = target: T2, BCL6 BTB domain H116A mutant (Homo sapiens, UniProt P41182, C67R/C84N/C8Q/H116A); test: Co-purification assay with mutant BCL6 BTB domain H116A; format: binding
T2 construct: which is BCL6 residues 5-129, with the point mutations C8Q, C67R and C84N; thioredoxin-6His-TEV site-BirA motif-thrombin site fusion (N, cleaved yes); made in house; host or cells: E. coli
Description: (§1) In vitro binding assays. Co-purification: Equimolar amounts of His-tagged thioredoxin-corepressor fusion protein and BCL6 BTB or PLZF BTB domain were combined, incubated for at least two hours, and loaded onto a Ni-NTA spin column (Qiagen). The column was washed three times with 600 μl of wash buffer (200 mM NaCl, 20 mM Tris-HCl pH 8.0, 10 mM imidazole), and bound protein was released with 400 μl of elution buffer (200 mM NaCl, 20 mM Tris-HCl pH 8.0, 300 mM imidazole). Samples were analyzed on 10-20% SDS-PAGE gels and stained with Coomassie blue.

[3] = target: T3, BCL6 BTB domain N21K mutant (Homo sapiens, UniProt P41182, C67R/C84N/C8Q/N21K); test: Co-purification assay with mutant BCL6 BTB domain N21K; format: binding
T3 construct: which is BCL6 residues 5-129, with the point mutations C8Q, C67R and C84N; thioredoxin-6His-TEV site-BirA motif-thrombin site fusion (N, cleaved yes); made in house; host or cells: E. coli
Description: as §1

BCL6 BTB domain [4] = target: T1, BCL6 BTB domain; test: Surface plasmon resonance (SPR) binding of BCL6 BTB domain to immobilized corepressor peptides; design: which is BCL6 residues 5-129, with the point mutations C8Q, C67R and C84N; made in house; settings: for relative binding affinity by SPR: relative to the longer SMRT peptide(s)
Description: Protein Expression and Purification. […] BCL6 BTB domain protein was produced by thrombin digestion of the thioredoxin fusion proteins, and repurified by size-exclusion chromatography in 500 mM NaC1, 20 mM Tris-HCl, 10% glycerol, 1.0 mM TCEP, pH 8.5.
SPR: Biotinylated corepressor peptides were coupled to streptavidin-coated sensor chips to a density of 800 response units (Biacore 2000). BCL6 or PLZF BTB protein was serially diluted in running buffer (10 mM Hepes, pH 7.4, 150 mM NaCl, 3 mM EDTA, 0.005% v/v surfactant P20) and injected at a flow rate of 5 μL/min.

BCL6 BTB domain [5] = target: T1, BCL6 BTB domain; test: Electrophoretic mobility shift assay (EMSA) for complex formation of BCoR fragments with BCL6 BTB domain; format: binding; design: which is BCL6 residues 5-129, with the point mutations C8Q, C67R and C84N; made in house; settings: non-denaturing PAGE
Description: Further mapping of the minimal BCoR fragment was done with a version of an electrophoretic mobility shift assay (EMSA). Purified BCL6 BTB domain was mixed with a BCoR fragment (either as a fusion protein or as a purified peptide) and incubated at room temperature in a non-denaturing buffer. The mixture was analyzed by non-denaturing polyacrylamide gel electrophoresis (PAGE) and protein bands were visualized with either Coomassie blue staining or silver staining. A change in the position of the BCL6 BTB domain band was indicative of complex formation. […] These two sequences correspond to a S507A / W509A / V511A BCoR triple mutation, and to a S507W / W509S BCoR double mutation, respectively.

BCL6 BTB domain [6] = target: T1, BCL6 BTB domain; test: Co-purification assay (Ni-NTA) of His-tagged corepressor fusion proteins with BTB domain; format: binding; design: which is BCL6 residues 5-129, with the point mutations C8Q, C67R and C84N; made in house
Description: as §1
The initial BCL6 interacting fragment identified in the yeast two-hybrid screen consisted of residues 112-753 of BCoR (Huynh et al., 2000).

Molecule: CC[C@H](C)[C@H](NC(=O)[C@H](CO)NC(=O)[C@H](CCCNC(=N)N)NC(=O)CNC(=O)[C@H](C)NC(=O)[C@H](CCC(=O)O)NC(=O)[C@H](CCCCN)NC(=O)[C@@H](NC(=O)[C@@H](NC(=O)[C@H](C)NC(=O)[C@@H](NC(=O)[C@@H](N)CC(C)C)C(C)C)[C@@H](C)O)C(C)C)C(=O)N[C@@H](Cc1c[nH]cn1)C(=O)N[C@@H](CCC(=O)O)C(=O)N[C@H](C(=O)N1CCC[C@H]1C(=O)N[C@@H](CCCNC(=N)N)C(=O)O)[C@@H](C)CC [SMRT^1414-1430, lvatvkeagrsiheipr] (H-LVATVKEAGRSIHEIPR-OH)
- stoicheometry of the interaction by ITC (BCL6 BTB domain [1]): 1.11 ±0.06 SMRT peptides per BCL6 chain
- enthalpic contribution ΔH (BCL6 BTB domain [1]; ITC): -23.2 ± 1.6 kcal/mol
- entropic contribution −TΔS (BCL6 BTB domain [1]; ITC): 16.4±2.3
- binding to H116A mutant BCL6 BTB domain [2]: does not bind
- binding to N21K mutant BCL6 BTB domain [3]: does not bind
- relative binding affinity by SPR (BCL6 BTB domain [4]): stronger binding

Molecule: CC[C@H](C)[C@H](NC(=O)[C@H](CO)NC(=O)[C@H](CCCNC(=N)N)NC(=O)CNC(=O)[C@H](C)NC(=O)[C@H](CCC(=O)O)NC(=O)[C@H](CCCCN)NC(=O)[C@@H](NC(=O)[C@@H](NC(=O)[C@H](C)NC(=O)[C@@H](NC(=O)[C@@H](N)CC(C)C)C(C)C)[C@@H](C)O)C(C)C)C(=O)N[C@@H](Cc1cnc[nH]1)C(=O)N[C@@H](CCC(=O)O)C(=O)N[C@H](C(=O)N1CCC[C@H]1C(=O)N[C@@H](CCCNC(=N)N)C(=O)O)[C@@H](C)CC [SMRT^1414-1430, lvatvkeagrsiheipr] (H-LVATVKEAGRSIHEIPR-OH)
- Kd (BCL6 BTB domain [1]): 11.4 ± 1 µM

Molecule: BCoR 494-510: thioredoxin-6his fusion protein with BCoR residues 494-510 (CAIYRSEIISTAPSSWV; also: thioredoxin-6His fusion protein)
- complex formation with the BCL6 BTB domain (EMSA band shift) (BCL6 BTB domain [5]): do not interact

Molecule: BCoR 494-514: thioredoxin-6his fusion protein with BCoR residues 494-514 (CAIYRSEIISTAPSSWVVPGP; also: thioredoxin-6His fusion protein)
- complex formation with the BCL6 BTB domain (EMSA band shift) (BCL6 BTB domain [5]): complexes were present

Molecule: BCoR 502-522: thioredoxin-6his fusion protein with BCoR residues 502-522 (ISTAPSSWVVPGPSPNEENNG; also: thioredoxin-6His fusion protein)
- complex formation with the BCL6 BTB domain (EMSA band shift) (BCL6 BTB domain [5]): complexes were present

Molecule: BCoR 506-522: thioredoxin-6his fusion protein with BCoR residues 506-522 (PSSWVVPGPSPNEENNG; also: thioredoxin-6His fusion protein)
- complex formation with the BCL6 BTB domain (EMSA band shift) (BCL6 BTB domain [5]): do not interact

Molecule: CAIYRSEIISTAPSSWVVPGPSPNE (not fully specified) [BCoR 494-518, thioredoxin-6his fusion protein with BCoR residues 494-518]
- complex formation with the BCL6 BTB domain (EMSA band shift) (BCL6 BTB domain [5]): forms a complex; also recorded: complexes were present

Molecule: N-CoR^1351-1383: N-CoR corepressor peptide, residues 1351-1383, equivalent to the SMRT fragment (IHEIPRQDILTQESRKTPEVVQSTRPIIEGSIS; UniProt O75376 1351-1383, looked up, fragment)
- fold stronger affinity of the BTB domain relative to the longer SMRT peptide (BCL6 BTB domain [4]; SPR, ratio of dissociation constants): 2.5 fold

Molecule: RSEIISTAPASAVAPGP [BCoR peptide with S507A / W509A / V511A triple mutation]
- complex formation with the BCL6 BTB domain (EMSA band shift) (BCL6 BTB domain [5]): did not result in a shift

Molecule: RSEIISTAPSSWVVPGP [BCoR 498-514]
- complex formation with the BCL6 BTB domain (EMSA band shift) (BCL6 BTB domain [5]): complexes were present

Molecule: RSEIISTAPWSSVVPGP [BCoR peptide with S507W / W509S double mutation]
- complex formation with the BCL6 BTB domain (EMSA band shift) (BCL6 BTB domain [5]): did not result in a shift

Molecule: SMRT^1417-1441: N-terminally truncated SMRT corepressor peptide, residues 1417-1441 (TVKEAGRSIHEIPREELRHTPELPL; not fully specified)
- relative binding affinity by SPR (BCL6 BTB domain [4]): slightly weaker binding

Molecule: Trx-(SMRT-BBD): His-tagged thioredoxin fusion protein of the SMRT-BBD (LVATVKEAGRSIHEIPR; also: His-tagged thioredoxin fusion protein)
- binding to H116A mutant BCL6 BTB domain [2]: significantly reduced affinity
- binding to N21K mutant BCL6 BTB domain [3]: no binding at all

B1: BCoR 112 to 342: hexahistidine tagged fusion protein containing residues 112 to 342 of BCoR (protein, UniProt Q6W2J9 112-342, looked up, fragment)
chain: LGFSSERNPEMQFKPNTPETVEASAVSGKPPNGFSAIYKTPPGIQKSAVATAEALGLDRPASDKQSPLNINGASYLRLPWVNPYMEGATPAIYPFLDSPNKYSLNMYKALLPQQSYSLAQPLYSPVCTNGERFLYLPPPHYVGPHIPSSLASPMRLSTPSASPAIPPLVHCADKSLPWKMGVSPGNPVDSHAYPHIQNSKQPRVPSAKAVTSGLPGDTALLLPPSPRPSPR
modifications: hexahistidine tag
notes: hexahistidine tagged fusion protein containing residues 112 to 342 of BCoR
- binding to BCL6 BTB domain in co-purification assay (BCL6 BTB domain [6]): did not

B2: BCoR 542 to 753: hexahistidine tagged fusion protein containing residues 542 to 753 of BCoR (protein, UniProt Q6W2J9 542-753, looked up, fragment)
chain: SSCPRMGGTDAVITNVSGSVSSAGRPASASPAPNANADGTKTSRSSVETTPSVIQHVGQPPATPAKHSSSTSSKGAKASNPEPSFKANENGLPPSSIFLSPNEAFRSPPIPYPRSYLPYPAPEGIAVSPLSLHGKGPVYPHPVLLPNGSLFPGHLAPKPGLPYGLPTGRPEFVTYQDALGLGMVHPMLIPHTPIEITKEEKPERRSRSHERA
modifications: hexahistidine tag
notes: hexahistidine tagged fusion protein containing residues 542 to 753 of BCoR
- binding to BCL6 BTB domain in co-purification assay (BCL6 BTB domain [6]): did not

B3: BCoR fragment 317-547: hexahistidine tagged fusion protein containing residues 317 to 547 of BCoR (protein)
chain: SAKAVTSGLPGDTALLLPPSPRPSPRVHLPTQPAADTYSEFHKHYARISTSPSVALSKPYMTVSSEFPAARLSNGKYPKAPEGGEGAQPVPGHARKTAVQDRKDGSSPPLLEKQTVTKDVTDKPLDLSSKVVDVDASKADHMKKMAPTVLVHSRAGSGLVLSGSEIPKETLSPPGNGCAIYRSEIISTAPSSWVVPGPSPNEENNGKSMSLKNKALDWAIPQQRSSSCPRM
modifications: left off: large carriers
notes: hexahistidine tagged fusion protein containing residues 317 to 547 of BCoR
- binding to H116A mutant BCL6 BTB domain [2]: did not bind
- binding to N21K mutant BCL6 BTB domain [3]: did not bind
- binding to BCL6 BTB domain in co-purification assay (BCL6 BTB domain [6]): bound directly
